Four molecules from patent publication US20080227698A1, “OLIGOPEPTIDES FOR TREATMENT OF OSTEOPOROSIS AND OTHER BONE DISEASES AND METHODS THEREOF” (Washington University, priority 2005, published 2008) can be followed below.

Broadly, the Kd is the equilibrium constant for the complex coming apart.

Experiment [1] deals with Wnt signaling. Briefly: Wnt signalling TCF/LEF-Luc assay in HEK293 cells (Wnt3A conditioned medium plus Dkk1). The format is cell-based. As to conditions: Wnt3A conditioned medium plus Dkk1 protein at 10 nM. On the procedure: HEK293 cells were plated into six-well plates. For each well, […] of the TOP-[…] luciferase construct (Upstate Biotechnology) was cotransfected with 0.8 μg Mesd-expressing vector, 0.8 μg Mesd mutant-expressing vector, or empty vector. A β-galactosidase-expressing vector (Promega, Madison, Wis.) was included as an internal control for transfection efficiency. After 48 hours, cells were lysed and both luciferase and β-galactosidase activities were determined with enzyme assay kits (Promega). The luciferase activity was determined with a luminometer using the Dual Luciferase Assay system (Promega). Luciferase activity was normalized to the activity of the P-galactosidase.

Experiment [2] has as its target T1, LRP6 (Homo sapiens, UniProt O75581). The experiment is described as follows: ^125I-DKK1 binding to LRP6-transduced HT1080 cells. Set-up: plasmid pCS-Myc-hLRP6 containing the full-length human LRP6 cDNA; HA; expressed in transfected cells; host or cells: human HT1080 cells, stably transduced (pLNCX2 retroviral vector). As to conditions: ^125I-DKK1 5 nM, 3 hours at 4° C. How it is done: Cells (2×10^5) were seeded into 12-well dishes 1 day prior to assay. Ligand-binding buffer (minimal Eagle's medium containing 0.6% BSA with a different concentration of radioligand, 0.6 ml/well) was added to cell monolayers, in the absence or the presence of 500 nM unlabeled RAP or 500 nM unlabeled Mesd, followed with incubation for 0-4 hours at 4° C. Thereafter, overlying buffer containing unbound ligand was removed, and cell monolayers were washed and lysed in low-SDS lysis buffer (62.5 mM Tris-HCl pH 6.8, 0.2% SDS, 10% v/glycerol) and counted.
RAP is a receptor antagonist for members of the LDLR family, and is able to inhibit the binding of most known ligands of the LDLR family members. […] In these experiments, Serum-free conditioned medium was harvested from HEK293 cells transiently transfected with cDNA for human Myc-DKK1 and allowed to bind to LRP6-transduced HT1080 cells (B,C) and control cells (A) in the absence (A,B) or presence (C) of 1 μM Mesd. Cell-surface-bound Myc-tagged DKK proteins were fixed and detected by immunofluorescence staining with anti-Myc antibody. […] Binding of 125I-DKK1 (5 nM) to LRP6-transduced HT1080 cells or the control cells was carried out for 3 hours at 4° C. in the absence (total) or presence of 500 nM RAP or 500 nM Mesd. […] LRP6-mediated 125I-Mesd (5 nM) degradation was carried out for 4 hours at 37° C. in the absence or presence of 500 nM RAP or 500 nM Mesd. Values are the means of triple determinations with the s.d. indicated by error bars. Bar, 10 μm.

Experiment [3] concerns the target T1, LRP6. The experiment is described as follows: LRP6-mediated ^125I-DKK1 degradation in LRP6-transduced HT1080 cells. The note with it: 5 nM, 4 hours at 37° C. The format is cell-based. The arrangement: plasmid pCS-Myc-hLRP6 containing the full-length human LRP6 cDNA; HA; expressed in transfected cells; host or cells: human HT1080 cells, stably transduced (pLNCX2 retroviral vector). On the procedure:
Ligand degradation was performed using the methods as described (Li, Y., J. Biol. Chem. 275: 17187-17194, 2000). Briefly, 2×10^5 cells were seeded into 12-well dishes 1 day prior to assay. Pre-warmed assay buffer (minimal Eagle's medium containing 0.6% BSA with radioligand, 0.6 ml/well) was added to cell monolayers in the absence or the presence of unlabeled 500 nM RAP or 500 nM Mesd, followed by incubation for 4 hours at 37° C. Thereafter, the medium overlying the cell monolayers was removed and proteins were precipitated by addition of BSA to 10 mg/ml and trichloroacetic acid to 20%. […] After each time point, the plates were quickly placed on ice and the assay buffer was replaced with cold stop/strip solution. ^125I-anti-HA IgG that remained on the cell surface was stripped by incubation of cell monolayers with cold stop/strip solution for a total of 20 minutes (0.75 ml for 10 minutes, twice) and counted. Cell monolayers were then solubilized with low-SDS lysis buffer and counted. […] The fraction of internalized ^125I-anti-HA IgG after each time point was calculated and plotted.
RAP is a receptor antagonist for members of the LDLR family, and is able to inhibit the binding of most known ligands of the LDLR family members. […] Cell-surface-bound Myc-tagged DKK proteins were fixed and detected by immunofluorescence staining with anti-Myc antibody. […]

Experiment [4] has as its target T1, LRP6. Briefly: ^125I-Mesd binding to LRP6, competition by Mesd or oligopeptide (FIG. 10C). As to conditions: compared with LRP5 (up to about 10-fold). Set-up: plasmid pCS-Myc-hLRP6 containing the full-length human LRP6 cDNA; HA; expressed in transfected cells; host or cells: human HT1080 cells, stably transduced (pLNCX2 retroviral vector). How it is done:
(§1) In order to investigate the binding of Mesd polypeptide and an Mesd oligopeptide to either LRP5 or LRP6, binding assays were performed using ^125I-Mesd or ^125I-DKK1 (FIG. 10).

The test system of experiment [5] is ST-2 cells. The experiment is described as follows: Alkaline phosphatase activity in ST-2 cells infected with DKK1 retrovirus. The format is cell-based. As to conditions: increasing amounts of oligopeptide; non-transfected cells approximately 0.14 units, DKK1-infected cells about 0.02 units. An excerpt:
Osteoblasts are cells which build bone. One marker for osteoblast activity is the cell surface enzyme alkaline phosphatase (AP). ST-2 cells are an osteoblast-derived cell line which provides an in vitro model system for studying osteoblast activity. […] Treatment of the transfected cells with increasing amounts of a Mesd oligopeptide having sequence

In experiment [6] the target is LRP5 (Homo sapiens, UniProt O75197). The experiment is described as follows: ^125I-DKK1 binding to LRP5, competition by Mesd or oligopeptide (FIG. 10B). On the procedure:
as §1

The target of experiment [7] is T2, LRP6 on LRP6-transduced HT1080 cells (HA-tagged) (UniProt O75581 20-1613, limits assumed).
T2 construct: whole, on cells; also called mature LRP6; cell surface LRP6
The experiment is described as follows: binding of truncated Mesd mutants to cell surface LRP6 (FIG. 3B).

The target of experiment [8] is T3, human Myc-tagged LRP5 on transiently transfected HEK293 cells (human, UniProt O75197 32-1615).
T3 construct: whole, on cells; also called mature LRP5; pcDNA3.1C-Myc-hLRP5
Briefly: competition against 125I-Mesd for LRP5 (FIG. 10A).

For experiment [9], the target named is T2, LRP6 on LRP6-transduced HT1080 cells …. Briefly: Scatchard analysis of 125I-Mesd saturation binding to LRP6-transduced HT1080 cells, 3 h at 4 C. An excerpt: (C) Scatchard plots of data in B. All values are the average of triple determinations with the s.d. indicated by error bars.
The target is the same in experiment [10]. The experiment is described as follows: competition against 125I-DKK1 for LRP6 (FIG. 10D).
Experiment [11] concerns the target T4, human VLDLR on stably transfected LRP-null CHO cells (human, UniProt P98155 28-873).
T4 construct: whole, on cells
The experiment is described as follows: 125I-Mesd binding to stably transfected LRP-null CHO cells, 4 h at 4 C, with or without 500 nM Mesd.

The target of experiment [12] is T5, human apoER2 on stably transfected LRP-null CHO cells (human, UniProt Q14114 33-963).
T5 construct: whole, on cells
T5 sequence (looked up): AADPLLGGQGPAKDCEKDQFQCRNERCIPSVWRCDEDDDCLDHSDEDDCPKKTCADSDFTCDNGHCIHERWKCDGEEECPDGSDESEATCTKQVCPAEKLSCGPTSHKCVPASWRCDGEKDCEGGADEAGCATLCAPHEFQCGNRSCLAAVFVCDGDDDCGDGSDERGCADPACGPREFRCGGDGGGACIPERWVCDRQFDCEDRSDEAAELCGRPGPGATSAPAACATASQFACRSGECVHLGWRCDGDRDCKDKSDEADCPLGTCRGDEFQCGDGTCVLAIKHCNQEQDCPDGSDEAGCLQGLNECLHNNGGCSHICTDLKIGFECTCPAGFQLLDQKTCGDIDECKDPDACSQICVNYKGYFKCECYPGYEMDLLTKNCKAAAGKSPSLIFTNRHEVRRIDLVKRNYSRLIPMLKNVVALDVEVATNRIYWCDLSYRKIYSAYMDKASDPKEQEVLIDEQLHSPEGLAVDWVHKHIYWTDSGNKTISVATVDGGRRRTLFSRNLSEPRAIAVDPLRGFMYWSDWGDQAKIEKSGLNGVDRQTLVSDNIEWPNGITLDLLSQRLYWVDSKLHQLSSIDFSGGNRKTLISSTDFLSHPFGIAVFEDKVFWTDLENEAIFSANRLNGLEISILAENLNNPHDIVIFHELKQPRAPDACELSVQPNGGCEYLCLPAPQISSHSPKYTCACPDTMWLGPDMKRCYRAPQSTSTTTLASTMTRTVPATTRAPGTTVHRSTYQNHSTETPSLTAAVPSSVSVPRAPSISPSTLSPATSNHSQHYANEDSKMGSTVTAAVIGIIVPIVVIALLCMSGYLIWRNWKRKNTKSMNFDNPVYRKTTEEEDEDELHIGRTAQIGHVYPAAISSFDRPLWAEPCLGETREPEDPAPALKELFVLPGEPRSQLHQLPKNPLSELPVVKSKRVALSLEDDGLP
The description is as above.

Some results are limits rather than exact numbers.

T1 sequence (O75581 20-1613): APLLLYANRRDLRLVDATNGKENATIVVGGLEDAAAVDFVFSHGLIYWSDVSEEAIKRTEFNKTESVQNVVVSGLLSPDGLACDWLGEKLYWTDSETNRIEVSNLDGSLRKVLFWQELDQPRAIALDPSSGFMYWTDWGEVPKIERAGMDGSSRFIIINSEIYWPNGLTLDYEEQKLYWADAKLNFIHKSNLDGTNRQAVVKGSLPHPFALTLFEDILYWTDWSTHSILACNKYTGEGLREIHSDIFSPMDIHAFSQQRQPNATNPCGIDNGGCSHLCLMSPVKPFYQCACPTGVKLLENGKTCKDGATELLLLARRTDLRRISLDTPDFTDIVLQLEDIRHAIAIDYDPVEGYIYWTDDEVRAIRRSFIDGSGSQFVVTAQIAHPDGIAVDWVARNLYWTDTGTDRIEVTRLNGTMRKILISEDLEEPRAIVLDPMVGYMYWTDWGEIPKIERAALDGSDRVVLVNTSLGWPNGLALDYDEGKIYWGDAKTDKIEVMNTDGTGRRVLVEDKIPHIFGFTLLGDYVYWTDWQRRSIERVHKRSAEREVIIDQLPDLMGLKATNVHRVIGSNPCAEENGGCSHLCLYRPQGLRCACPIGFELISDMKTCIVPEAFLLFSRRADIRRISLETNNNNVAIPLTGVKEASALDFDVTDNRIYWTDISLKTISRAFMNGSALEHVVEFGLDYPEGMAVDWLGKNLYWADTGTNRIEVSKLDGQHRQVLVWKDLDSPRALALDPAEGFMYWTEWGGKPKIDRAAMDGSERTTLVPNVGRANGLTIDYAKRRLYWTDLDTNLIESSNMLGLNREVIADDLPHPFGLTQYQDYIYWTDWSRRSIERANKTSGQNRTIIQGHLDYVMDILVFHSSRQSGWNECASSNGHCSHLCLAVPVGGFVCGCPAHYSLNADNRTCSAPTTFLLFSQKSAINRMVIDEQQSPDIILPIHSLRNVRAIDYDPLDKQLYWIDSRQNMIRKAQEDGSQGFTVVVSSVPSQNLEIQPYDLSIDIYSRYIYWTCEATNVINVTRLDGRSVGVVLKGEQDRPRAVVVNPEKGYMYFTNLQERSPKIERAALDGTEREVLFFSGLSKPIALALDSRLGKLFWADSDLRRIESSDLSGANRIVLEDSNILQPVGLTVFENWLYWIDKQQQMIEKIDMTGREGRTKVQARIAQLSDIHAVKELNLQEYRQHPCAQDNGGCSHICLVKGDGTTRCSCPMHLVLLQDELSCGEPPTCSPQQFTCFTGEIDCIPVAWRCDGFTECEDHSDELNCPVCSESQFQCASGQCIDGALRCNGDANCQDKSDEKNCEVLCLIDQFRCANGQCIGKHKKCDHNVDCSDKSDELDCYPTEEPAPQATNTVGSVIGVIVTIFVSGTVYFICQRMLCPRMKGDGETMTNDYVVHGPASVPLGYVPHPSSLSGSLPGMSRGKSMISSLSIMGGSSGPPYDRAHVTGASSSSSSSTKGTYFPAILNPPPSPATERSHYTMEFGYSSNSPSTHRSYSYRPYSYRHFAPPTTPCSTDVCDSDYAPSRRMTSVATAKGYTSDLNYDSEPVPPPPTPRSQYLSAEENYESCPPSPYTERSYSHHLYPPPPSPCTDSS
T2 sequence (O75581 20-1613 limits assumed): as the sequence (O75581 20-1613) above
LRP5, sequence (O75197 32-1615): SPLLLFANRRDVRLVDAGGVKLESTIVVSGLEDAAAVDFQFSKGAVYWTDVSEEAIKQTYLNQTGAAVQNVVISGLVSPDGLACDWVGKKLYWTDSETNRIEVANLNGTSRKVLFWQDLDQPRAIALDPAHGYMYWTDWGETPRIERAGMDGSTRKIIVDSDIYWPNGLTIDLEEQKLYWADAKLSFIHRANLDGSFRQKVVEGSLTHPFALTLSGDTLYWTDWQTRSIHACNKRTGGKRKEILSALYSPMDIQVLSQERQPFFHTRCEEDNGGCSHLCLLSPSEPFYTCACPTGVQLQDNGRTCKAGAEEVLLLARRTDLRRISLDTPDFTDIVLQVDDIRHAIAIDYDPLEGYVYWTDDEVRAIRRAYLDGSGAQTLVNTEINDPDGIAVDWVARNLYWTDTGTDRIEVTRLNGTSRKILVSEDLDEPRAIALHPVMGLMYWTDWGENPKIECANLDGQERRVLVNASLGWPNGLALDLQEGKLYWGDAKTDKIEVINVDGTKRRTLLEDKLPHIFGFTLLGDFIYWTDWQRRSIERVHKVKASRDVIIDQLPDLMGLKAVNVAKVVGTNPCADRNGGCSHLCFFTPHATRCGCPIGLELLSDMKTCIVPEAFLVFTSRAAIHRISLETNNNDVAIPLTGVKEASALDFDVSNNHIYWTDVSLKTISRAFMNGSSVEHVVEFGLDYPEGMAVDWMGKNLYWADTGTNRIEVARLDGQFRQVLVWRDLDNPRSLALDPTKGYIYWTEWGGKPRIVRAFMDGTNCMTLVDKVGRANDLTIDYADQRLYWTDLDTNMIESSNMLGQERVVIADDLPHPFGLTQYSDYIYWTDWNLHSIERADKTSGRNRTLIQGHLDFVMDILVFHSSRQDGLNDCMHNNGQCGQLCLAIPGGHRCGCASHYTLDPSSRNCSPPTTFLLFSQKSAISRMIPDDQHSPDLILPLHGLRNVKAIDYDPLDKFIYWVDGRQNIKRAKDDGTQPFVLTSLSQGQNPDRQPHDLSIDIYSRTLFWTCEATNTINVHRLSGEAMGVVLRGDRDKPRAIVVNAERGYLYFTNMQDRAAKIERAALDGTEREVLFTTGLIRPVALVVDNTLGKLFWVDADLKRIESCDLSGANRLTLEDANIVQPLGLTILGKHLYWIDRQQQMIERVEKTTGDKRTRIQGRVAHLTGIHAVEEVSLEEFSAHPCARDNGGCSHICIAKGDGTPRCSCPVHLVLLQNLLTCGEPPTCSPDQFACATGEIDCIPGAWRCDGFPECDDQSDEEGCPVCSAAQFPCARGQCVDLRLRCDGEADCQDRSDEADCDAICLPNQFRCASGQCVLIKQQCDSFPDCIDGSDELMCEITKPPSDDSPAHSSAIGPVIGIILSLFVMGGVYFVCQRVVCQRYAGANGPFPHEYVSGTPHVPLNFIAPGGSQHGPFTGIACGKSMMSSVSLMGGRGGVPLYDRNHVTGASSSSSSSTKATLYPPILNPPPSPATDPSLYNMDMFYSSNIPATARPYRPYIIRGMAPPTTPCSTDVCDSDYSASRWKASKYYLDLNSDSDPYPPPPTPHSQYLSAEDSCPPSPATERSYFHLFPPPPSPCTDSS
T3 sequence (O75197 32-1615): as above

For “DKK1: human DKK1 protein, LRP6-specific ligand and antagonist; recombinant (R&D Systems) or Myc-tagged in conditioned medium”, the “Effect of Dkk1 on Wnt signaling (luciferase activity)” value in experiment [1] is recorded as “inhibits Wnt signaling”. Moreover, the “^125I-DKK1 binding in LRP6-expressing HT1080 cells versus control cells” value in experiment [2] is given as “significantly higher levels”. Besides, the “^125I-DKK1 degradation in LRP6-expressing HT1080 cells versus control cells” value in experiment [3] is reported as “significantly higher levels”.
As to “KGGGSKEKNKTKPEKAKKKEGDPKPRASKEDNRAGSR [SEQ ID NO: 20]”, the “Reduction of binding of ^125I-Mesd to LRP6” value in experiment [4] is “even greater reduction”. Moreover, the “Alkaline phosphatase (AP) activity” value in experiment [5] is “increasing levels of AP activity”. In addition, the “Reduction in binding of ^125I-DKK1 to LRP5” value in [6] is reported as “small but significant reduction”.

B1: Mesd(12-155) (other, not shown: small tags and cut ends)
chain: RKKKDIRDYNDADMARLLEQWEKDDDIEEGDLPEHKRPSAPIDFSKLDPGKPESILKMTKKGKTLMMFVTVSGNPTEKETEEITSLWQGSLFNANYDVQRFIVGSDRAIFMLRDGSYAWEIKDFLVSQDRCAEVTLEGQMYPGK
modifications: 125I-iodinated when used as radioligand
notes: also called truncated Mesd mutant lacking both the N-terminal and C-terminal regions
As for B1, in experiment [7], the binding result was “no binding”.

B2: recombinant mouse Mesd protein (wild type) (other, not shown: small tags and cut ends)
chain: ADTPGEATPPPRKKKDIRDYNDADMARLLEQWEKDDDIEEGDLPEHKRPSAPIDFSKLDPGKPESILKMTKKGKTLMMFVTVSGNPTEKETEEITSLWQGSLFNANYDVQRFIVGSDRAIFMLRDGSYAWEIKDFLVSQDRCAEVTLEGQMYPGKGGGSKEKNKTKPEKAKKKEGDRKPRASKEDNRAGSRREDL
modifications: 125I-iodinated (IODO-GEN) when used as radioligand
notes: Made in E. coli from full-length mouse Mesd cDNA; also called wild type Mesd
On to B2, for which the “fold reduction of ^125I-Mesd binding” value in experiment [8] is about 10 fold. This molecule came in with a Kd in experiment [9] of about 3.3 nM. Moreover, the “fold reduction of ^125I-DKK1 binding” value in [10] was over 2 fold. In addition, the binding result in experiment [11] and in experiment [12] was “no binding (tested: 5 nM 125I-Mesd)” in each case.
